Test results as given in US20170204167A1.

Legend:
[1] = target: HA of H5N1 A/Viet Nam/1203/04 (influenza A virus H5N1 A/Viet Nam/1203/04); experiment: ELISA on HA
[2] = target: HA of H9 A/HK/1073/99 (influenza A virus H9N2 A/Hong Kong/1073/99); experiment: ELISA on HA
[3] = target: HA of H5N1 A/Viet Nam/1203/04 (influenza A virus H5N1 A/Viet Nam/1203/04); experiment: cell-based or functional assay
[4] = target: HA of H5N1 A/Viet Nam/1203/04 (influenza A virus H5N1 A/Viet Nam/1203/04); experiment: ELISA on recombinant or purified HA
[5] = target: HA of H8N4 A/Alberta/357/84 (influenza A virus H8N4 A/Alberta/357/84); experiment: ELISA on recombinant or purified HA
[6] = target: HA of H5N1 A/Viet Nam/1/05 (influenza A virus H5N1 A/Viet Nam/1/05); experiment: ELISA on recombinant or purified HA
[7] = target: HA of H10N4 A/mink/Sweded/3900/84 (influenza A virus H10N4 A/mink/Sweded/3900/84); experiment: ELISA on recombinant or purified HA
[8] = target: HA of H6N5 A/shearwater/Australia/1/72 (influenza A virus H6N5 A/shearwater/Australia/1/72); experiment: ELISA on recombinant or purified HA
[9] = target: HA of H9 A/HK/1073/99 (influenza A virus H9N2 A/Hong Kong/1073/99); experiment: ELISA on recombinant or purified HA
[10] = target: HA of H7N3 A/Canada/444/04 (influenza A virus H7N3 A/Canada/444/04); experiment: ELISA on recombinant or purified HA
[11] = target: H7-HA (Table 7) (influenza A virus, H7 subtype, strain not stated); experiment: ELISA on baculovirus-derived recombinant HA
[12] = target: H5-HA (Table 7) (influenza A virus, H5 subtype, strain not stated); experiment: ELISA on baculovirus-derived recombinant HA

B1: FI28 variant 1 (antibody, V domains shown)
VH: EVQLVESGGGAVQPGESLKLSCAASGFTFSNYGMHWVRQAPGKGLEWVAVISYDGSNKYYADSVKGRFTISRDNSKDTLYLQMNSLRAEDTALFYCAKERPLRLLRYFDWLSGGANDYWGQGTLVTVSS
VL: DIVMTQSPDSLAVSLGERATINCKSSQSVLYSSNNKNYLAWYQQKPGQPPKLLIDWASTRESGVPDRFSGSGSGTDFTLTISNLQVEDVAVYYCQQYYRSPSFGQGTKLEIK
Q: With B1 as the binder, how does the Binding to HA by ELISA (% of subtype specific control antibodies) [1] read?
A: 46.3%

Q: What about the Binding to HA by ELISA (% of subtype specific control antibodies) [2] of the same binder?
A: 87.7%

Q: And the Neutralization of HA-pseudotypes (IC90, µg/ml) [3]?
A: 0.02 µg/mL

B2: FI6 variant 2 (antibody, V domains shown)
VH: QVQLVQSGGGVVQPGRSLRLSCVASGFTFSTYAMHWVRQAPGRGLEWVAVISYDGNYKYYADSVKGRFSISRDNSNNTLHLEMNTLRTEDTALYYCAKDSQLRSLLYFEWLSQGYFDPWGQGTLVTVTS
VL: DIQMTQSPDSLAVSLGARATINCKSSQSVTFNYKNYLAWYQQKPGQPPKVLIYWASARESGVPDRFSGSGSGTDFTLTISSLQAEDVAVYYCQQHYRTPPTFGQGTKVEIK
Q: Which results are given for B2?
A: EC50 [4]: 0.014 µg/mL; EC50 [5]: 0.033 µg/mL; EC50 [6]: 0.01 µg/mL; EC50 [7]: 0.09 µg/mL; EC50 [8]: 0.041 µg/mL; EC50 [9]: 0.014 µg/mL; EC50 [10]: 0.033 µg/mL; EC50 [11]: 0.0314 µg/mL; EC50 [12]: 0.0145 µg/mL; Binding to HA by ELISA (% of subtype specific control antibodies) [1]: 73.7%; Binding to HA by ELISA (% of subtype specific control antibodies) [2]: 98.7%; Neutralization of HA-pseudotypes (IC90, µg/ml) [3]: 0.02 µg/mL
